Laboratory results reported in patent US20100260668A1 (published 2010).

What was measured:
PlGF = target: T1, PlGF (UniProt P49763-2 21-149, limits assumed); test: direct bind ELISA, C-terminal VD
T1 construct: bought antigen coated on the ELISA plate; also called Placental GF
T1 sequence (looked up): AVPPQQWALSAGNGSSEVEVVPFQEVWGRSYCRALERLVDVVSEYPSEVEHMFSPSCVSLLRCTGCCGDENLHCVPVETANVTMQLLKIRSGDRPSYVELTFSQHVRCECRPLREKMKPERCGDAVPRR

VEGF = target: T2, VEGF (UniProt P15692 27-191, limits assumed); test: direct bind ELISA, N-terminal VD
T2 construct: bought antigen coated on the ELISA plate

recombinant human HGF = recombinant human HGF (human, UniProt P14210 32-728); test: cell-based or functional assay
HGF = target: T3, HGF (UniProt P14210 32-728); test: Biacore SPR
T3 construct: Bought reagent
Description: The BIACORE assay (Biacore, Inc, Piscataway, N.J.) determines the affinity of antibodies or DVD-Ig with kinetic measurements of on-rate and off-rate constants. Binding of antibodies or DVD-Ig to a target antigen (for example, a purified recombinant target antigen) is determined by surface plasmon resonance-based measurements with a Biacore® 1000 or 3000 instrument (Biacore® AB, Uppsala, Sweden) using running HBS-EP (10 mM HEPES [pH 7.4], 150 mM NaCl, 3 mM EDTA, and 0.005% surfactant P20) at 25° C. […] For example, approximately 5000 RU of goat anti-mouse IgG, (Fcγ), fragment specific polyclonal antibody (Pierce Biotechnology Inc, Rockford, Ill.) diluted in 10 mM sodium acetate (pH 4.5) is directly immobilized across a CM5 research grade biosensor chip using a standard amine coupling kit according to manufacturer's instructions and procedures at 25 μg/ml. Unreacted moieties on the biosensor surface are blocked with ethanolamine. Modified carboxymethyl dextran surface in flowcell 2 and 4 is used as a reaction surface. Unmodified carboxymethyl dextran without goat anti-mouse IgG in flow cell 1 and 3 is used as the reference surface. For kinetic analysis, rate equations derived from the 1:1 Langmuir binding model are fitted simultaneously to association and dissociation phases of all eight injections (using global fit analysis) with the use of Biaevaluation 4.0.1 software. Purified antibodies or DVD-Ig are diluted in HEPES-buffered saline for capture across goat anti-mouse IgG specific reaction surfaces. Antibodies or DVD-Ig to be captured as a ligand (25 μg/ml) are injected over reaction matrices at a flow rate of 5 μl/min. The association and dissociation rate constants, kₒₙ (M⁻¹s⁻¹) and koff (s⁻¹) are determined under a continuous flow rate of 25 μl/min. Rate constants are derived by making kinetic binding measurements at different antigen concentrations ranging from 10-200 nM. The equilibrium dissociation constant (M) of the reaction between antibodies or DVD-Igs and the target antigen is then calculated from the kinetic rate constants by the following formula: KD=koff/kₒₙ. Binding is recorded as a function of time and kinetic rate constants are calculated.

[1] = target: recombinant human VEGF165 (human, UniProt P15692-4 27-191); test: cell-based or functional assay
Sequence of recombinant human VEGF165 (P15692 other isoform, or with tags, fused parts or gaps limits assumed): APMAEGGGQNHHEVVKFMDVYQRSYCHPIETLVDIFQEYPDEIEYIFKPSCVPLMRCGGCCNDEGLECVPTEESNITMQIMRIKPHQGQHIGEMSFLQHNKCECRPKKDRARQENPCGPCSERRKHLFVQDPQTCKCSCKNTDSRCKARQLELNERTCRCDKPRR

Sequence of recombinant human HGF (P14210 32-728 limits assumed): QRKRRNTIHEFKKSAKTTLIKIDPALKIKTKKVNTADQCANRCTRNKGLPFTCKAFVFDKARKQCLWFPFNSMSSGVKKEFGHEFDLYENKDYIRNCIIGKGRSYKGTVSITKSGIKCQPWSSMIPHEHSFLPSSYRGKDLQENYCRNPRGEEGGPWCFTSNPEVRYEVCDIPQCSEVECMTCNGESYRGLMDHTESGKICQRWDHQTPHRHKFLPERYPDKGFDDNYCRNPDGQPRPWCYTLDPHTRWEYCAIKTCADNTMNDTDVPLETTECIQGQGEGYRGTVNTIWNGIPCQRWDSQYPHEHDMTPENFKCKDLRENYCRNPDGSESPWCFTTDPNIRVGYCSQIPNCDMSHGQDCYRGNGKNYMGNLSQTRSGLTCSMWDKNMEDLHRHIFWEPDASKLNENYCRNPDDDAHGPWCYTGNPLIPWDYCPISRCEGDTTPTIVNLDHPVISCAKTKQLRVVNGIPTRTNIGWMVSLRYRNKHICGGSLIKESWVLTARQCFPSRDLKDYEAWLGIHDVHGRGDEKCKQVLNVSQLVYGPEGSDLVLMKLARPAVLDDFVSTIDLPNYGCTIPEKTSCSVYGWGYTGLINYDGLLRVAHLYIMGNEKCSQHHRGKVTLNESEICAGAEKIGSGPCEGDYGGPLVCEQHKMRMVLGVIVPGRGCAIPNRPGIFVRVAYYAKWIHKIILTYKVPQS
T3 sequence (P14210 32-728 limits assumed): as above
T2 sequence (P15692 other isoform, or with tags, fused parts or gaps limits assumed): as the sequence (P15692 other isoform, or with tags, fused parts or gaps limits assumed) above

B1: DVD570 (bispecific antibody, human IgG1, kappa)
heavy: not shown
light: DIQMTQSPSSLSASVGDRVTITCRASQVIRRSLAWYQQKPGKAPKLLIYAASNLASGVPSRFSGSGSGTDFTLTISSLQPEDFATYYCQQSNTSPLTFGQGTKVEIKRTVAAPSVFIFPPAIQMTQSSSSFSVSLGDRVTITCKASEDIYNRFAWYQQKPGNAPRLLISGAASLEAGVPSRFSGSGSGQDYTLSITSLQTEDVATYYCQQYWSTPWTFGGGTKLEIKRTVAAPSVFIFPPSDEQLKSGTASVVCLLNNFYPREAKVQWKVDNALQSGNSQESVTEQDSKDSTYSLSSTLTLSKADYEKHKVYACEVTHQGLSSPVTKSFNRGEC
notes: outer AB071 (VEGF), inner AB074 (PlGF); HC linker short, LC linker long; also called DVD-Ig DVD570
PlGF
  EC50: 1.44 nM
VEGF
  EC50: 17.6 nM

B2: DVD045 (bispecific antibody, human IgG1, kappa)
heavy: not shown
light: DIQMTQSPSSLSASVGDRVTITCSASQDISNYLNWYQQKPGKAPKVLIYFTSSLHSGVPSRFSGSGSGTDFTLTISSLQPEDFATYYCQQYSTVPWTFGQGTKVEIKRTVAAPDIQMTQSPSSVSASVGDRVTITCRASQGISSWLAWYQQKPGKAPNLLIYEASSLQSGVPSRFGGSGSGTDFTLTISSLQPEDFATYYCQQANGFPWTFGQGTKVEIKRTVAAPSVFIFPPSDEQLKSGTASVVCLLNNFYPREAKVQWKVDNALQSGNSQESVTEQDSKDSTYSLSSTLTLSKADYEKHKVYACEVTHQGLSSPVTKSFNRGEC
Recombinant human HGF
  Inhibition Of Akt Phosphorylation (% Inhibition At 0.67 nM Ab/DVD): -15%
  Inhibition Of Akt Phosphorylation (% Inhibition At 6.7 nM Ab/DVD): -2%
  Inhibition Of Akt Phosphorylation (% Inhibition At 67 nM Ab/DVD): 64%

B3: AB012 (antibody, human IgG1, kappa, V domains shown)
VH: QVQLVESGGGLVKPGGSLRLSCAASGFTFSDYYMSWIRQAPGKGLEWVSYISSSGSTIYYADSVKGRFTISRDNAKNSLYLQMNSLRAEDTAVYYCARDEYNSGWYVLFDYWGQGTLVTVSS
VL: DIQMTQSPSSVSASVGDRVTITCRASQGISSWLAWYQQKPGKAPNLLIYEASSLQSGVPSRFGGSGSGTDFTLTISSLQPEDFATYYCQQANGFPWTFGQGTKVEIKR
Recombinant human HGF
  Inhibition Of Akt Phosphorylation (% Inhibition At 0.67 nM Ab/DVD): 79%
  Inhibition Of Akt Phosphorylation (% Inhibition At 6.7 nM Ab/DVD): 110%
  Inhibition Of Akt Phosphorylation (% Inhibition At 67 nM Ab/DVD): 106%

B4: AB012 (antibody, human IgG1, kappa, V domains shown)
VH: QVQLVESGGGLVKPGGSLRLSCAASGFTFSDYYMSWIRQAPGKGLEWVSYISSSGSTIYYADSVKGRFTISRDNAKNSLYLQMNSLRAEDTAVYYCARDEYNSGWYVLFDYWGQGTLVTVSS
VL: DIQMTQSPSSVSASVGDRVTITCRASQGISSWLAWYQQKPGKAPNLLIYEASSLQSGVPSRFGGSGSGTDFTLTISSLQPEDFATYYCQQANGFPWTFGQGTKVEIKR
HGF
  Kd: < 0.0284 nM
  koff: 0.000284 s⁻¹
  kon: > 1e+07 M⁻¹ s⁻¹

B5: DVD476 (bispecific antibody, human IgG1, kappa)
heavy: not shown
light: DIQMTQSPSSLSASVGDRVTITCSASQDISNYLNWYQQKPGKAPKVLIYFTSSLHSGVPSRFSGSGSGTDFTLTISSLQPEDFATYYCQQYSTVPWTFGQGTKVEIKRTVAAPDIQMTQSPSSLSASVGDRVTITCRASQDVSTAVAWYQQKPGKAPKLLIYSASFLYSGVPSRFSGSGSGTDFTLTISSLQPEDFATTYYCQQSYTGTVTFGQGTKVEIKRTVAAPSVFIFPPSDEQLKSGTASVVCLLNNFYPREAKVQWKVDNALQSGNSQESVTEQDSKDSTYSLSSTLTLSKADYEKHKVYACEVTHQGLSSPVTKSFNRGEC
[1]
  inhibition of HUVEC proliferation (IC50): 0.24 nM

B6: DVD568 (bispecific antibody, human IgG1, kappa)
heavy: not shown
light: DIQMTQSPSSLSASVGDRVTITCRASQDVSTAVAWYQQKPGKAPKLLIYSASFLYSGVPSRFSGSGSGTDFTLTISSLQPEDFATYYCQQSYTTPPTFGQGTKVEIKRTVAAPSVFIFPPAIQMTQSSSSFSVSLGDRVTITCKASEDIYNRFAWYQQKPGNAPRLLISGAASLEAGVPSRFSGSGSGQDYTLSITSLQTEDVATYYCQQYWSTPWTFGGGTKLEIKRTVAAPSVFIFPPSDEQLKSGTASVVCLLNNFYPREAKVQWKVDNALQSGNSQESVTEQDSKDSTYSLSSTLTLSKADYEKHKVYACEVTHQGLSSPVTKSFNRGEC
notes: HC linker short, LC linker long; also called DVD-Ig DVD568
PlGF
  EC50: 2.84 nM
VEGF
  EC50: 3.14 nM

B7: DVD034 (bispecific antibody, human IgG1, kappa)
heavy: not shown
light: DIQMTQSPSSVSASVGDRVTITCRASQGISSWLAWYQQKPGKAPNLLIYEASSLQSGVPSRFGGSGSGTDFTLTISSLQPEDFATYYCQQANGFPWTFGQGTKVEIKRTVAAPDVVMTQSPLSLPVTPGEPASISCRSSQSLLHSNGFNYVDWYLQKPGQSPHLLIYFGSYRASGVPDRFSGSGSGTDFTLKISRVEAEDVGVYYCMQALQTPPWTFGQGTKVEIRRTVAAPSVFIFPPSDEQLKSGTASVVCLLNNFYPREAKVQWKVDNALQSGNSQESVTEQDSKDSTYSLSSTLTLSKADYEKHKVYACEVTHQGLSSPVTKSFNRGEC
notes: N-terminal VD HGF, C-terminal VD RON; also called DVD034H; DVD034L
HGF
  Kd: 0.0215 nM
  koff: 6.55e-05 s⁻¹
  kon: 3.05e+06 M⁻¹ s⁻¹

B8: DVD485 (bispecific antibody, human IgG1, kappa)
heavy: not shown
light: DIQMTQSPSSLSASVGDRVTITCRASQDVSTAVAWYQQKPGKAPKLLIYSASFLYSGVPSRFSGSGSGTDFTLTISSLQPEDFATTYYCQQSYTGTVTFGQGTKVEIKRTVAAPSVFIFPPDIQMTQSPSSLSASVGDRVTITCRASQVIRRSLAWYQQKPGKAPKLLIYAASNLASGVPSRFSGSGSGTDFTLTISSLQPEDFATYYCQQSNTSPLTFGQGTKVEIKRTVAAPSVFIFPPSDEQLKSGTASVVCLLNNFYPREAKVQWKVDNALQSGNSQESVTEQDSKDSTYSLSSTLTLSKADYEKHKVYACEVTHQGLSSPVTKSFNRGEC
[1]
  inhibition of HUVEC proliferation (IC50): 59.5 nM

B9: DVD471 (bispecific antibody, human IgG1, kappa, L234A L235A)
heavy: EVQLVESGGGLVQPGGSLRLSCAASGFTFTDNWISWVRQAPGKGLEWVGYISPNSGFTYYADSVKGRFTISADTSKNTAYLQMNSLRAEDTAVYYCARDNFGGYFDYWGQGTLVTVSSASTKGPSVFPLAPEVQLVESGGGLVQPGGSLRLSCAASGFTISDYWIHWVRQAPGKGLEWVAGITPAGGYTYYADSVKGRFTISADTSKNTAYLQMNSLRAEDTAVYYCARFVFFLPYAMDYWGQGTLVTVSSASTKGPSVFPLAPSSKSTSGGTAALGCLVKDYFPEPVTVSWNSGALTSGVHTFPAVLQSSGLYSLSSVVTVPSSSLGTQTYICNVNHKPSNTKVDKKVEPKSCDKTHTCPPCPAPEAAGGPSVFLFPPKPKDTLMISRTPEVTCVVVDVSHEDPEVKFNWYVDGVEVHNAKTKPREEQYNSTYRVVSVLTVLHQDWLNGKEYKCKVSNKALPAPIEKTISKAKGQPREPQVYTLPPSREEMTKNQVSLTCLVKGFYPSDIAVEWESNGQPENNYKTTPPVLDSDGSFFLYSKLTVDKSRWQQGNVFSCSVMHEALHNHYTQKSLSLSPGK
light: DIQMTQSPSSLSASVGDRVTITCRASQDVSTAVAWYQQKPGKAPKLLIYSASFLYSGVPSRFSGSGSGTDFTLTISSLQPEDFATTYYCQQSYTGTVTFGQGTKVEIKRTVAAPSVFIFPPDIQMTQSPSSLSASVGDRVTITCRASQDVSTAVAWYQQKPGKAPKLLIYSASFLYSGVPSRFSGSGSGTDFTLTISSLQPEDFATYYCQQSYTTPPTFGQGTKVEIKRTVAAPSVFIFPPSDEQLKSGTASVVCLLNNFYPREAKVQWKVDNALQSGNSQESVTEQDSKDSTYSLSSTLTLSKADYEKHKVYACEVTHQGLSSPVTKSFNRGEC
[1]
  inhibition of HUVEC proliferation (IC50): 6.8 nM

B10: AB071 (antibody, human IgG1, kappa, L234A L235A, V domains shown)
VH: EVQLVESGGGLVQPGGSLRLSCAASGFTINASWIHWVRQAPGKGLEWVGAIYPYSGYTNYADSVKGRFTISADTSKNTAYLQMNSLRAEDTAVYYCARWGHSTSPWAMDYWGQGTLVTVSS
VL: DIQMTQSPSSLSASVGDRVTITCRASQVIRRSLAWYQQKPGKAPKLLIYAASNLASGVPSRFSGSGSGTDFTLTISSLQPEDFATYYCQQSNTSPLTFGQGTKVEIKR
[1]
  inhibition of HUVEC proliferation (IC50): 2.5 nM

B11: DVD566 (bispecific antibody, human IgG1, kappa)
heavy: not shown
light: DIQMTQSPSSLSASVGDRVTITCSASQDISNYLNWYQQKPGKAPKVLIYFTSSLHSGVPSRFSGSGSGTDFTLTISSLQPEDFATYYCQQYSTVPWTFGQGTKVEIKRTVAAPSVFIFPPAIQMTQSSSSFSVSLGDRVTITCKASEDIYNRFAWYQQKPGNAPRLLISGAASLEAGVPSRFSGSGSGQDYTLSITSLQTEDVATYYCQQYWSTPWTFGGGTKLEIKRTVAAPSVFIFPPSDEQLKSGTASVVCLLNNFYPREAKVQWKVDNALQSGNSQESVTEQDSKDSTYSLSSTLTLSKADYEKHKVYACEVTHQGLSSPVTKSFNRGEC
notes: HC linker short, LC linker long; also called DVD-Ig DVD566
PlGF
  EC50: 1.42 nM
VEGF
  EC50: 1.49 nM

B12: DVD470 (bispecific antibody, human IgG1, kappa)
heavy: not shown
light: DIQMTQSPSSLSASVGDRVTITCSASQDISNYLNWYQQKPGKAPKVLIYFTSSLHSGVPSRFSGSGSGTDFTLTISSLQPEDFATYYCQQYSTVPWTFGQGTKVEIKRTVAAPSVFIFPPDIQMTQSPSSLSASVGDRVTITCRASQDVSTAVAWYQQKPGKAPKLLIYSASFLYSGVPSRFSGSGSGTDFTLTISSLQPEDFATTYYCQQSYTGTVTFGQGTKVEIKRTVAAPSVFIFPPSDEQLKSGTASVVCLLNNFYPREAKVQWKVDNALQSGNSQESVTEQDSKDSTYSLSSTLTLSKADYEKHKVYACEVTHQGLSSPVTKSFNRGEC
[1]
  inhibition of HUVEC proliferation (IC50): 0.45 nM

B13: DVD482 (bispecific antibody, human IgG1, kappa)
heavy: not shown
light: DIQMTQSPSSLSASVGDRVTITCSASQDISNYLNWYQQKPGKAPKVLIYFTSSLHSGVPSRFSGSGSGTDFTLTISSLQPEDFATYYCQQYSTVPWTFGQGTKVEIKRTVAAPSVFIFPPDIQMTQSPSSLSASVGDRVTITCRASQDVSTAVAWYQQKPGKAPKLLIYSASFLYSGVPSRFSGSGSGTDFTLTISSLQPEDFATTYYCQQSYTGTVTFGQGTKVEIKRTVAAPSVFIFPPSDEQLKSGTASVVCLLNNFYPREAKVQWKVDNALQSGNSQESVTEQDSKDSTYSLSSTLTLSKADYEKHKVYACEVTHQGLSSPVTKSFNRGEC
[1]
  inhibition of HUVEC proliferation (IC50): 0.32 nM

B14: DVD474 (bispecific antibody, human IgG1, kappa)
heavy: not shown
light: DIQMTQSPSSLSASVGDRVTITCRASQVIRRSLAWYQQKPGKAPKLLIYAASNLASGVPSRFSGSGSGTDFTLTISSLQPEDFATYYCQQSNTSPLTFGQGTKVEIKRTVAAPSVFIFPPDIQMTQSPSSLSASVGDRVTITCRASQDVSTAVAWYQQKPGKAPKLLIYSASFLYSGVPSRFSGSGSGTDFTLTISSLQPEDFATTYYCQQSYTGTVTFGQGTKVEIKRTVAAPSVFIFPPSDEQLKSGTASVVCLLNNFYPREAKVQWKVDNALQSGNSQESVTEQDSKDSTYSLSSTLTLSKADYEKHKVYACEVTHQGLSSPVTKSFNRGEC
[1]
  inhibition of HUVEC proliferation (IC50): 0.42 nM

B15: DVD486 (bispecific antibody, human IgG1, kappa)
heavy: not shown
light: DIQMTQSPSSLSASVGDRVTITCRASQVIRRSLAWYQQKPGKAPKLLIYAASNLASGVPSRFSGSGSGTDFTLTISSLQPEDFATYYCQQSNTSPLTFGQGTKVEIKRTVAAPSVFIFPPDIQMTQSPSSLSASVGDRVTITCRASQDVSTAVAWYQQKPGKAPKLLIYSASFLYSGVPSRFSGSGSGTDFTLTISSLQPEDFATTYYCQQSYTGTVTFGQGTKVEIKRTVAAPSVFIFPPSDEQLKSGTASVVCLLNNFYPREAKVQWKVDNALQSGNSQESVTEQDSKDSTYSLSSTLTLSKADYEKHKVYACEVTHQGLSSPVTKSFNRGEC
[1]
  inhibition of HUVEC proliferation (IC50): 0.88 nM
